Reference: the DeepSol protein solubility set

test: soluble on expression in E. coli; label from the status in PepcDB or PDB records

Sequence	soluble on expression in E. coli
MPSSSPSMDESRRSAVPPKEPAGRICTVCSDRANGYNFGVLTCESCKAFFRRNASKHKEIKCPFSDSCQITSASRKFCQACRLNKCFAVGMNSEWLNDLKPKSSIVSGKFKRKKPDMKNNLKVEVDDTEEDLENDDEEQISVPKALLEKLINKANEKSKDRCTCKCQCGFYPITQRLTAYEPKDTTAVNSPQDISFSHHLHHSDSFYSSSTSTLSPMSVISCAPSSHDSSGYNTSQLVTQSPTNYTVSPASIPSSITELSPQMPSQYPPMLSPFQFGVMAQMAAPANFLNFPPMPERTWTPIQAVSTVPVTETLPPNLLEQIHSKIDKYIGVLNEDEITLLEELHVQNEPLNAPLIQWHNPKSIDGVFRIIEEALRRIVNMACQLSLFRELHVDDRKNLLKSGFGELLIVRGLMAYDKSDNSWNHSFGVRGKMEVKVEVLKNPKLEEHYKAHMNLLSTFGEDVRNNEHLMLIFNAAVIFHPHVSNLRDSKRVHSTQAKYFQMLLKLLTFEYGKSRADIAYSNLLNQVVELHRVNRTLLRVFYGLDIAQLDPLIRELCSFE	not soluble
MPTITLRLELHNPTKVKQDMYERMTEVNTAFANWLLNHPELNQATSKIFKEFSPQRFPSAVVNQTIREVKSQKKNQKTKKFRTFWCCFNNQNVKVEKKGAFYTVSFPTLEKRIGVPVVTRPYQEAWLNRLLDGTAKQGAAKLYKKRTKWYLAIAITFEVKPRHETKVMGVDLGLRYIAVASVGTKSLFFKGSQCAFIRRRYAALRRTLGKAKKLQMIRKIGRKESRWMKDQNHKISRQIVNVALANGVGVIRMEALTGIRKRAKSAKEAGRSLHSWAFHQLQTMIAYKAEMAGIRVEWVKPTYTSQTCKCGHREKGNRNGIHFQCKQCGYTLHADLNGAINIAKAISGFVAEPSALVTGAPPIGVHRNPMGRGDDTPLNLGVVRTRNG	not soluble
MPVAATNSETAMQQVLDNLGSLPSATGAAELDLIFLRGIMESPIVRSLAKAHERLEETKLEAVRDNNLELVQEILRDLAQLAEQSSTAAELAHILQEPHFQSLLETHDSVASKTYETPPPSPGLDPTFSNQPVPPDAVRMVGIRKTAGEHLGVTFRVEGGELVIARILHGGMVAQQGLLHVGDIIKEVNGQPVGSDPRALQELLRNASGSVILKILPSYQEPHLPRQVFVKCHFDYDPARDSLIPCKEAGLRFNAGDLLQIVNQDDANWWQACHVEGGSAGLIPSQLLEEKRKAFVKRDLELTPNSGTLCGSLSGKKKKRMMYLTTKNAEFDRHELLIYEEVARMPPFRRKTLVLIGAQGVGRRSLKNKLIMWDPDRYGTTVPYTSRRPKDSEREGQGYSFVSRGEMEADVRAGRYLEHGEYEGNLYGTRIDSIRGVVAAGKVCVLDVNPQAVKVLRTAEFVPYVVFIEAPDFETLRAMNRAALESGISTKQLTEADLRRTVEESSRIQRGYGHYFDLCLVNSNLERTFRELQTAMEKLRTEPQWVPVSWVY	soluble
MPYLNCDTITGDFHFQMIRFARAMEVGDKLTMKGKIMNPANMSYLHLYQGFNSVYEKSPLSLHIRVQYLRNSIIYNSWFGSWGGEQFSQQPFLSGNYYSISVLKGPTYYSIYMGNLLITKYAFRNPANWQIGNLLGYGDWTVTSVSMTCVRPGVPTTPDPKATTTPTPTTTKAQNIIAEDPNGGQLGGGELVVTNPGSVGSGSGNSGNSSNNNNSSGNSNYGSNNSGSGNGNSNSGNGNSGNGNGNNAGNSGNGNGNSNGNNGNGSNGNGNGNNGNGNNGNNGNGHPQYPYPVPPHGYYPPGYPYPPGYPYPPPGAFYYPPGGIPQNGMNGQNGNGQPNIIVINSGGNKKRNRGGNLRPQFDVDLDGDEDEEC	not soluble
MQAQNMTEASTVHVEHDPVRQRFNVDTDGHRAELAYRREGEIMTITHTQVPDAVSGRGIAAALVEDALAFARQHGLKVVPACRYADAYVRRHPRYQDLLAMAGDPLEHHHHHH	not soluble
MQAWFMDDSNEDQRLPHHRNPKELVSLDYLAELGVLYWKLNPENYENDSELSKIREDRGYDYMDLLDLCPEKVSNYEEKLKNFFTEHIHKDEEIRYCLAGSGYFDVRDKDDRWIRIWMQPGDLIVLPAGIYHRFTLDASNYIKLMRLFVGEPVWTPYNRPQEEHPVRKKYIHGLTYKFGETVKAH	soluble
MQDIWRLPATELADLVRSRRVSAREVAEAALHRLDAVNPAINAVVDHKADDALTQADAVDAAFAKGETPGVLAGVPVTVKVNVDQQGFATTNGVTLQRDWIAKTNNPVVDNLRKAGAVIIGRTNTPAFSYRWFTSNKLHGETLNPRDPSITPGGSSGGAAAAVAAGIGAIAHGTDIAGSVRYPAYACGVHGLRPTIGRVAAFNASSPERPICPQISAVSGPLARTIADVRLGLQALAQPDARDPWWVPAPLDGPPRDKRAALCIAPDDLAVVRAVRDALKDAARRLEAAGWVVDEIASTPPLREAAELQAQFWLGDGYQAMLDAAEREGDEGALACLHGNRDKAIGDLASYSKLLTRRATLTRDWQTFFETYAVLLTPVCGELPFPQRLDLKDEESFKRVWAAQMPQVGLPFMGLPALTVSTGMVGRVPVGVQVVSGRYREDLCLLAGEAIEA	not soluble
MQDKCMMRPLSNPLTEAYNVQNLYQCLNCDDYHLCNGSLNCDPLVDREGIVCTVTGKYIQCNVRELEHHHHHH	not soluble
MQDNSTKYLLYIQTATSNHLETNCVFLHCDYILKVPINKLVSYYAKLHLSSQSVLIETAKNILNINKLVPIYINPKTILFPLKHKRAPIQIYINAHYIVGMTAIENSTLIHFQEGIQLEVDEPFSLVSKKCHESLALKHFIENTISNLEHHHHHH	not soluble
MQDRIFAFTPKGSLFQLPKGATPIDFAFAVHTNLGAQAVGAKINGRHVPLRTPLGNGDVVEIIKSRTSEPQLEHHHHHH	not soluble
MQDTDFFSWRRTMLLRFQRMEAAEEAYHEIELQAQQLEYDYYSLCVRHPVPFTRPKVAFYTNYPESWVSYYQAKNFLAIDPVLNPENFSQGHLMWNDDLFSEAQPLWEAAHAHGLRRGVTQYLMLPNRALGFLSFSRCSTREIPILSDELQLKMQLLVRESLMALMRLNDEIVMTPEMNFSKREKEILKWTAEGKTSAEIAMILSITG	not soluble
MQDYTVHIVDDEEPVRKSLAFMLTMNGFAVKMHQSAEAFLAFAPDVRNGVLVTDLRMPDMSGVELLRNLGDLKINIPSIVITGHGDVPMAVEAMKAGAVDFIEKPFEDTVIIEAIERASEHLVALE	soluble
MQEEVNQKVISLSIQGVKITASVLKAALRKFLEMDNRRKQKATQVKMAEKTGRAQEKGREKARKKIEKKKPHGKQTIKQLNAQGVQLSNLKITDENVKSFDRVARKYGIDYSLKKEVGADPPKYLVFFKAKDVDVMTAAFREYAGVELKKKQVKKPSVRKKLQKSVERKAKNRQRVKQRQKSRGQER	not soluble
MQEGLVVVESCPRLGWAMESPENGTRQTAYEIEIREAFTGRSVWNSGKVTSSQSQLVPTEGADICLNNPFNYSWRVRVWDETDTPSEWSQEAKFRLASDDLSSGKWIGAITRKDSHLPEGRKFHGGELKKPEVKAAWEAVDTLAKKSICLRRTFQTGEAKGKNANRKSGKKIVEATAYVCGLGFYEFSLNGKKIGDSEFAPLWSDYDKSVYYNTYDVTEQLQDGENVVGILLGNGFYNVQGGRYRKLQISFGPPTLLFELVINYEDGTRETIRSDHEWKYDLSPITFNCIYGGEDYDARREQKGWNQVGFNDSHWRPVVVQEAPKGVLRSQMAPPVKIMERYDIQKVTKLNSEQVMAASKSTKRTVDPSAVVLDMGQNLAGFPEITVRGKRGQKVTLIVAEALMDEGACNQRQTGRQHYYEYTLKGEGDEIWHPRFSYYGFRYIQVEGAVLKGQKNPQKLPVLKNIQSCFIYNSAKKVSTFESSNRIFNAAHRLIEKAVRSNMQSVFTDCPHREKLGWLEQVHLNGPGLLYNYDLTAYAPQIMQNMADAQHPNGAMPTTAPEYVVFEGPGMDAFAESPEWGGSLVIFPFMYYETYGDDSLIKKYYQHMRRYTDYLKTRADNGILSFGLGDWYDYGDFRAGFSRNTPVPLVATAHYYMTVMYLIKAARMVGNEFDVRYYSSLAYDIMVAFNKRFLDSNTAQYGTGSQASNALPIFLQMIQSTGDKGDYTPDASLAAKVLTNLIKDVESHGNRLTTGDVGNRYLIQTLARNGQHELIYKMFNHEEAPGYGFQLKFGATTLTEQWDPRQGSSWNHFMMGQIDEWFFNSLIGIRPSTTLSASVNEKDEPMQGYQKFVIAPKPVGDLKYVKSTYETLYGTILVDWTRQSGTFTLNVSVPVNTTAIVYLPGEKEPKEVQSGTYKFVAAE	not soluble
MQEYSVEVALVHPDDMVNLFGSNERHLKLIEENLGVVIHARTERVQILGETEEAIELARLTIKALLVLVGRGMIVNTSDVVTALSMAQNGNIDKFVALYEEEIIKDSYGKPIRVKTLGQKVYVDSVKSHDIVFGIGPAGTGKTFLAVTLAITALKRGQVKRIILTRPAVEAGESLGFLPGDLKEKVDPYLRPVYDALYQILGKEQTSRLMEREIIEIAPLAYMRGRTLDDAFVILDEAQNTTIMQMKMFLTRLGFNSKMIVNGDISQIDLPKNVKSGLVDASEKLKDIKQIDFVYLSAKDVVRHPVVAEIINAYEESTDVR	not soluble
MQEYTNHSDTTFALRNISFRVPGRTLLHPLSLTFPAGKVTGLIGHNGSGKSTLLKMLGRHQPPSEGEILLDAQPLESWSSKAFARKVAYLPQQLPPAEGMTVRELVAIGRYPWHGALGRFGAADREKVEEAISLVGLKPLAHRLVDSLSGGERQRAWIAMLVAQDSRCLLLDEPTSALDIAHQVDVLALVHRLSQERGLTVIAVLHDINMAARYCDYLVALRSGEMIAQGTPAEIMRGETLEMIYGIPMGILPHPAGAAPVSFVY	not soluble
MQFSTTPTLEGQSIVEYCGVVTGEAILGANIFRDFFAGIRDIVGGRSGAYEKELRKAREIAFQELGEQAKALGADAVVGIDIDYETVGKDGSMLMVSVSGTAVKTRR	not soluble
MQFYRRLTAIKAISFDLDDTLYNNRPIMQSVEQQMAHYFTEKFAILLPELLVEPKQVFNRRFWAPYRQQAIKAHQDISHDVVRLRFESYRLGLLAHNLSAEAARKEAQAGLDYFINLRSDFTVPKESHELLASLSKAFPLVSISNGNVDTRALGIDHYFQHIYHAGFQTGNCHDESEHLLKQKPETDMFSLVCQQLDILPEQLLHVGDCGFADIHGALNAGCQTAWLPQYGVGKSLQQIPHIELSLVSDLSQLIRKA	not soluble
MQGVPSNEPMLGQLTDNGRAAEAGLKEGDYIQSINGEKMRSWTDIVSAVKENPEKEMDVAVKRDNKTLHISVTPEAVKDENKKTIGRFGSYAPTEKGVLSAVAYGATSTVDVTKAILTNLSKLVTGQFKLDMLSGPVGIYDMTDQVAKTGI	not soluble
MQGVQEQIEELQTKLAFQELTVEELNQEVIKLNQLVAHQQHQIQLLIGKLQAIEPSNMATQAEETPPPHY	soluble
MQIDFNSDMGESFGAWTIGDGVDTELMAFISSANIATGFHAGDPSTMRRTIEQAKRLGVAIGAHPGFRDLVGFGRRHINAPAQELVDDMLYQLGALRELARVQGVPLQHFKPHGALYMHLARDEEAARLLVENLQRLEPDLLLYCMPGSVICNVAQELGQPVVREFYADRAYDLSGSIVFTRNVRAHDPAEVAARVIRACQQGLVRTVEGDDLAIQFDSICLHSDTPGALALAQATRQALDGAGIEVRTPRLEHHHHHH	not soluble
MQIGAKIRQLRIANQMTQEELADRAELSKGFISQIENDLTSPSINTLVDILQCLGTDLKTFFSDSEDKQIVFREKDYFSKTDNELKNTIEWVVPNSQKNAMEPIRMTLQPGGRSLEDHPHEGEEFGYVVKGSIEVHIGNECYRVNEGESFYFESTRKHYIVNVGESDAQVIWVSTPPTF	not soluble
MQKIALCITGASGVIYGIKLLQVLEELDFSVDLVISRNAKVVLKEEHSLTFEEVLKGLKNVRIHEENDFTSPLASGSRLVHYRGVYVVPCSTNTLSCIANGINKNLIHRVGEVALKERVPLVLLVREAPYNEIHLENMLKITRMGGVVVPASPAFYHKPQSIDDMINFVVGKLLDVLRIEHNLYKRWRG	soluble
